Measurements published in patent US20240141039A1 (AGENUS, published 2024).

Key:
[1] = biological target: T1, full-length isoform 2 ECD of cynomolgus monkey CD96 (His-tagged) (cynomolgus monkey); assay: SPR Biacore T200, Protein A capture, 1:1 model, experiment #2
T1 construct: also called His-tagged isoform 2 of cynomolgus monkey CD96; cyno CD96 extracellular domain isoform 2
T1 chain: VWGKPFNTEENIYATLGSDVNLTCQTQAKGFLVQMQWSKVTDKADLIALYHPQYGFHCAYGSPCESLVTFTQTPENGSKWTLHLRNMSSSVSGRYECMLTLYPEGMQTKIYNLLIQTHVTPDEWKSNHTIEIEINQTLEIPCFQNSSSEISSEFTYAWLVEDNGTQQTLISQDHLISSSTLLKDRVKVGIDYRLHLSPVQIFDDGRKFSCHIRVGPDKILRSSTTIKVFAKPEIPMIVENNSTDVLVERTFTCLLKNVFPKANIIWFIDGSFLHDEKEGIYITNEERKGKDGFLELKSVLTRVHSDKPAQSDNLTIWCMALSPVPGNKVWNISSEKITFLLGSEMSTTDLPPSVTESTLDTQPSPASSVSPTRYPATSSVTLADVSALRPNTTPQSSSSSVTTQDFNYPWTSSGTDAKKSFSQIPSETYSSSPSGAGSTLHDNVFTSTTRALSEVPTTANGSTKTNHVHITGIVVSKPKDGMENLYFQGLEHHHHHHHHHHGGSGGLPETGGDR
Experimental: Briefly, surface plasmon resonance experiments were performed using a Biacore T200 instrument, and the association rate (kₐ), dissociation rate (kd), and dissociation constant (KD) were calculated from each experiment using a 1:1 binding model with Biacore T200 Evaluation Software.
Multispecific molecules were captured using a 30-sec injection at a flow rate of 10 μl/min to reach about 350 resonance units (RUs). […] The sensor chip was regenerated between cycles with two 30-sec injections of 10 mM glycine, pH 1.5. Sensorgrams were evaluated and fit to a simple Langmuir 1:1 interaction model using the global data analysis option of BIAevaluation 3.0 software. Data quality was verified by visually inspecting deviations and curve fitting, and by evaluating the parameters of Rₘₐₓ, Chi2, and Tc.

[2] = biological target: T2, full-length human FcγRIIIa variant V/V expressed on CHO cells (human, UniProt P08637 17-254); assay: flow cytometry, human FcγRIIIa (V/V) CHO cells, representative experiment
T2 construct: whole, on cells; also called human FcγRIIIa-CHO (variant V/V); human FcγRIIIa (V/V) CHO cells
Experimental: For the antibody binding assay, a frozen aliquot of human FcγRIIIa-CHO cells (variant V/V or variant F/F) was thawed at 37° C. and then transferred to a tube containing DPBS supplemented with 0.5% Bovine Serum Albumin and 0.05% Sodium Azide (FACS Buffer). Cells were centrifuged at 300 g for five minutes. The supernatant was discarded, and cells resuspended in FACS buffer were seeded in a 96-well U-bottom tissue culture plate at a density of 2×10⁵ cells per well in 50 μL. In a separate microplate, a 2× concentrated intermediate stock of each antibody was prepared. Antibodies were serially diluted 1-to-4 in FACS buffer. A total of 11 working dilutions ranging from 60 μg/mL to 0.000057 μg/mL were prepared. Fifty microlitres of each dilution were then transferred to the microplate containing human FcγRIIIa-CHO (variant V/V or variant F/F) cells. The cells were then incubated for 45 minutes at 4° C. […] After a 30-minute incubation on ice, the cells were washed twice with cold FACS Buffer, and the cells were analyzed by flow cytometry (BD LSR Fortessa Flow Cytometer). The data were analyzed using the FlowJo software by sequentially gating the FSC-A vs. SSC-A, and SSC-H vs. SSC-A. Mean fluorescence intensity (MFI) values for PE were calculated, and the data were plotted by GraphPad Prism software.

[3] = biological target: T3, wild type full-length cynomolgus monkey TIGIT expressed on CHO cells (cynomolgus monkey, UniProt A0A7N9I9V4 89-312); assay: flow cytometry, blocking of human CD155-Fc-PE binding to CHO cells expressing cynomolgus TIGIT
T3 construct: whole, on cells; also called cynomolgus TIGIT-CHO cells
Experimental: (§1) A 4× concentrated intermediate stock of each multispecific molecule was prepared in a microplate. Antibodies were serially diluted 1-to-4 in FACS buffer. […] Lastly, 25 μL of cynomolgus TIGIT-CHO cells, prepared as described above, were added to each well. After a 30-minute incubation on ice, the cells were washed twice with cold FACS Buffer, and the cells were analyzed by flow cytometry (BD LSR Fortessa Flow Cytometer). The data were analyzed using the FlowJo software by sequentially gating on the FSC-A vs. SSC-A and SSC-H vs. SSC-A. Mean fluorescence intensity (MFI) values for PE were calculated, and the data were plotted by GraphPad Prism software and analyzed as described above.

[4] = biological target: T3, wild type full-length cynomolgus monkey …; assay: flow cytometry, cynomolgus TIGIT CHO cells, geomean of 2 experiments
[5] = biological target: T3, wild type full-length cynomolgus monkey …; assay: flow cytometry on CHO cells expressing cynomolgus TIGIT, PE anti-human IgG Fc detection
[6] = biological target: T4, wild type full-length human TIGIT expressed on cells (human, UniProt Q495A1 22-244); assay: flow cytometry, blocking of human CD155-Fc-PE binding to CHO cells expressing human TIGIT
T4 construct: whole, on cells; also called human TIGIT-CHO; human TIGIT CHO cells
T4 sequence (looked up): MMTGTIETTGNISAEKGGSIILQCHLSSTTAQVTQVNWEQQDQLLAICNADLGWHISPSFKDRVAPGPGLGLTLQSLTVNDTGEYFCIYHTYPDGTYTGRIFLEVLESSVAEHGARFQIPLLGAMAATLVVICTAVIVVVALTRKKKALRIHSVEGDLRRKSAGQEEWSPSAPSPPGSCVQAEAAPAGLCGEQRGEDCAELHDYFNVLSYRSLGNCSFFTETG
Experimental: as §1, with “1-to-3” for “1-to-4”, “human” for “cynomolgus”

T3 sequence (A0A7N9I9V4 entry or part of it): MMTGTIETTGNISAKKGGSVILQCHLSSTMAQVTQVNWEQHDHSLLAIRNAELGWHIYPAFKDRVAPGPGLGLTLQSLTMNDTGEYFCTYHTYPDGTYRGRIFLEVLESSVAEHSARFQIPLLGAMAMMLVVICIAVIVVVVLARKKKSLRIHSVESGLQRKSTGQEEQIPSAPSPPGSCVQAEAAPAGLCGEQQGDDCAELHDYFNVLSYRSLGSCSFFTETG
T2 sequence (P08637 other isoform, or with tags, fused parts or gaps mutant limits assumed): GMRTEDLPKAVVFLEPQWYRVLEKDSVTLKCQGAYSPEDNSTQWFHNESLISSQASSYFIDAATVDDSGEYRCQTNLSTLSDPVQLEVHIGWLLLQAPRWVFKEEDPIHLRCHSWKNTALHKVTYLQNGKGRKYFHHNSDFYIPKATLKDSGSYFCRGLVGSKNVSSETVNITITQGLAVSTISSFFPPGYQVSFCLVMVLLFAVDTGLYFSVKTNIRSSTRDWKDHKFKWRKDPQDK

B1: anti-TIGIT×CD96 multispecific molecule BA123 (bispecific antibody, human IgG1, kappa, lambda)
heavy 1: QVQLVQSGAEVKKPGASVKVSCKASGYTFTSYGISWVRQAPGQGLEWMGWISAYNANTNYAQKLQGRVTMTTDTSTSTAYMELRSLRSDDTAVYYCARSAGVLGGMDVWGRGTLVTVSSASTKGPSVFPLAPSSKSTSGGTAALGCLVKDYFPEPVTVSWNSGALTSGVHTFPAVLQSSGLYSLSSVVTVPSSSLGTQTYICNVNHKPSNTKVDKRVEPKSCDKTHTCPPCPAPELLGGPDVFLFPPKPKDTLMISRTPEVTCVVVDVSHEDPEVKFNWYVDGVEVHNAKTKPREEQYNSTYRVVSVLTVLHQDWLNGKEYKCKVSNKALPAPIEKTISKAKGQPREPQVYTLPPSREEMTKNQVSLSCAVKGFYPSDIAVEWESNGQPENNYKTTPPVLDSDGSFFLVSKLTVDKSRWQQGNVFSCSVMHEALHNHYTQKSLSLSPG
light 1: not shown
heavy 2: EVQLVQSGAEVKKPGSSVKVSCKASGYTFASYGISWVRQAPGQGLEWMGGITPFFNRVDVAEKFQGRVTITADKSTSTAYIELSSLRSEDTAVYYCARDLRRGGVGDAFDIWGRGTLVTVSSASTKGPSVFPLAPSSKSTSGGTAALGCLVKDYFPEPVTVSWNSGALTSGVHTFPAVLQSSGLYSLSSVVTVPSSSLGTQTYICNVNHKPSNTKVDKRVEPKSCDKTHTCPPCPAPELLGGPDVFLFPPKPKDTLMISRTPEVTCVVVDVSHEDPEVKFNWYVDGVEVHNAKTKPREEQYNSTYRVVSVLTVLHQDWLNGKEYKCKVSNKALPLPEEKTISKAKGQPREPQVYTLPPSREEMTKNQVSLWCLVKGFYPSDIAVEWESNGQPENNYKTTPPVLDSDGSFFLYSKLTVDKSRWQQGNVFSCSVMHEALHNHYTQKSLSLSPG
light 2: QSALTQPRSVSGSPGQSVTISCTGTSPDVGSHAYRSWYQQHPGKAPKLMIYEVSYRPSGVSNRFSGSKSGNTASLTISGLQAEDEADYYCSSYPPSSATVFGAGTKLTVLGQPKAAPSVTLFPPSSEELQANKATLVCLISDFYPGAVTVAWKADSSPVKAGVETTTPSKQSNNKYAASSYLSLTPEQWKSHRSYSCQVTHEGSTVEKTVAPTEC
notes: copies: 1 + 1 + 1 + 1
[1]
  Kd: 42.7 nM
  koff: 0.00324 s⁻¹
  kon: 75900 M⁻¹ s⁻¹

B2: anti-TIGIT monospecific antibody BA148 (antibody, human IgG1, lambda)
heavy: EVQLVQSGAEVKKPGSSVKVSCKASGYTFASYGISWVRQAPGQGLEWMGGITPFFNRVDVAEKFQGRVTITADKSTSTAYIELSSLRSEDTAVYYCARDLRRGGVGDAFDIWGRGTLVTVSSASTKGPSVFPLAPSSKSTSGGTAALGCLVKDYFPEPVTVSWNSGALTSGVHTFPAVLQSSGLYSLSSVVTVPSSSLGTQTYICNVNHKPSNTKVDKRVEPKSCDKTHTCPPCPAPELLGGPDVFLFPPKPKDTLMISRTPEVTCVVVDVSHEDPEVKFNWYVDGVEVHNAKTKPREEQYNSTYRVVSVLTVLHQDWLNGKEYKCKVSNKALPLPEEKTISKAKGQPREPQVYTLPPSREEMTKNQVSLTCLVKGFYPSDIAVEWESNGQPENNYKTTPPVLDSDGSFFLYSKLTVDKSRWQQGNVFSCSVMHEALHNHYTQKSLSLSPGK
light: B1 light 2
notes: IgG1; also called anti-TIGIT IgG1 antibody BA148
[2]
  Area under the curve (AUC): 50100
[3]
  IC50 (read off the curve): ~0.2 µg/mL
[4]
  EC50: 0.0534 µg/mL

B3: anti-TIGIT×CD96 multispecific molecule BA127 (bispecific antibody, human IgG1, kappa, lambda)
heavy 1: QVQLVQSGAEVKKPGASVKVSCKASGYTFTTYALHWVRQAPGQRLEWMGWINTGSGDTKYSQKFQGRVTITRDTSASTAYMELSSLRSEDTAVYYCARSLGVYYGMDVWGQGTLVTVSSASTKGPSVFPLAPSSKSTSGGTAALGCLVKDYFPEPVTVSWNSGALTSGVHTFPAVLQSSGLYSLSSVVTVPSSSLGTQTYICNVNHKPSNTKVDKRVEPKSCDKTHTCPPCPAPELLGGPDVFLFPPKPKDTLMISRTPEVTCVVVDVSHEDPEVKFNWYVDGVEVHNAKTKPREEQYNSTYRVVSVLTVLHQDWLNGKEYKCKVSNKALPAPIEKTISKAKGQPREPQVYTLPPSREEMTKNQVSLSCAVKGFYPSDIAVEWESNGQPENNYKTTPPVLDSDGSFFLVSKLTVDKSRWQQGNVFSCSVMHEALHNHYTQKSLSLSPG
light 1: not shown
heavy 2: B1 heavy 2
light 2: B1 light 2
notes: Anti-CD96 arm = BA139, anti-TIGIT arm = BA150; copies: 1 + 1 + 1 + 1
[5]
  EC50 (read off the curve): ~0.2 µg/mL
[6]
  IC50 (read off the curve): ~0.1 µg/mL
